Cell detachment data for one molecule are collected here from US9149523B2, “Compositions and methods for treating cancer and neurodegenerative diseases” (Yeda Research and Development Co. Ltd., priority 2010, dated 2015).

This test deals with HEK 293T cells. Description: Cell detachment assay 24 h after transfection. In kind it is cell-based, human. Particulars: 24 h post-transfection, versus luciferase-transfected control cells, p<0.01 between the two constructs. As for the experimental part:
Cell detachment was assessed as described before (Widau, Jin et al. 2010), by counting the adherent cells left in the tissue culture plate after 24 h of transfection with either DAPk WT or ΔP-Loop. Briefly, cells were washed twice in PBS to remove detached cells. Then, adherent cells were trypsinized and counted with a Countess® Automated Cell Counter (Invitrogen). The extent of cell detachment is defined as (the number of control cells—the number of treated cells)/(the number of control cells), where control cells are HEK 293T cell transected with the irrelevant protein luciferase.
The functional effects of the GTP binding on DAPk's ability to induce some of its canonical phenotypic effects in cell cultures, namely cell rounding and detachment, and membrane blebbing, was assessed. These DAPk associated cellular changes are dependent on DAPk's catalytic activity and have been successfully used in other studies to assess DAPk activity in vivo (Widau, Jin et al. 2010). The necessity of the GTP-binding to the ROC domain for the extent of these effects on HEK 293T cells was examined. This was achieved by comparing DAPk WT to its P-Loop deletant counterpart. FIG. 6A presents a western blot analysis showing even expression levels between the constructs used in the cell detachment assay, ruling out any possibility of false results generated by uneven expression levels. […]

B1: WT protein: tagged human full-length death-associated protein kinase (DAPk), expressed by transfection (protein)
chain: MTVFRQENVDDYYDTGEELGSGQFAVVKKCREKSTGLQYAAKFIKKRRTKSSRRGVSREDIEREVSILKEIQHPNVITLHEVYENKTDVILILELVAGGELFDFLAEKESLTEEEATEFLKQILNGVYYLHSLQIAHFDLKPENIMLLDRNVPKPRIKIIDFGLAHKIDFGNEFKNIFGTPEFVAPEIVNYEPLGLEADMWSIGVITYILLSGASPFLGDTKQETLANVSAVNYEFEDEYFSNTSALAKDFIRRLLVKDPKKRMTIQDSLQHPWIKPKDTQQALSRKASAVNMEKFKKFAARKKWKQSVRLISLCQRLSRSFLSRSNMSVARSDDTLDEEDSFVMKAIIHAINDDNVPGLQHLLGSLSNYDVNQPNKHGTPPLLIAAGCGNIQILQLLIKRGSRIDVQDKGGSNAVYWAARHGHVDTLKFLSENKCPLDVKDKSGEMALHVAARYGHADVAQLLCSFGSNPNIQDKEEETPLHCAAWHGYYSVAKALCEAGCNVNIKNREGETPLLTASARGYHDIVECLAEHGADLNACDKDGHIALHLAVRRCQMEVIKTLLSQGCFVDYQDRHGNTPLHVACKDGNMPIVVALCEANCNLDISNKYGRTPLHLAANNGILDVVRYLCLMGASVEALTTDGKTAEDLARSEQHEHVAGLLARLRKDTHRGLFIQQLRPTQNLQPRIKLKLFGHSGSGKTTLVESLKCGLLRSFFRRRRPRLSSTNSSRFPPSPLASKPTVSVSINNLYPGCENVSVRSRSMMFEPGLTKGMLEVFVAPTHHPHCSADDQSTKAIDIQNAYLNGVGDFSVWEFSGNPVYFCCYDYFAANDPTSIHVVVFSLEEPYEIQLNQVIFWLSFLKSLVPVEEPIAFGGKLKNPLQVVLVATHADIMNVPRPAGGEFGYDKDTSLLKEIRNRFGNDLHISNKLFVLDAGASGSKDMKVLRNHLQEIRSQIVSVCPPMTHLCEKIISTLPSWRKLNGPNQLMSLQQFVYDVQDQLNPLASEEDLRRIAQQLHSTGEINIMQSETVQDVLLLDPRWLCTNVLGKLLSVETPRALHHYRGRYTVEDIQRLVPDSDVEELLQILDAMDICARDLSSGTMVDVPALIKTDNLHRSWADEEDEVMVYGGVRIVPVEHLTPFPCGIFHKVQVNLCRWIHQQSTEGDADIRLWVNGCKLANRGAELLVLLVNHGQGIEVQVRGLETEKIKCCLLLDSVCSTIENVMATTLPGLLTVKHYLSPQQLREHHEPVMIYQPRDFFRAQTLKETSLTNTMGGYKESFSSIMCFGCHDVYSQASLGMDIHASDLNLLTRRKLSRLLDPPDPLGKDWCLLAMNLGLPDLVAKYNTSNGAPKDFLPSPLHALLREWTTYPESTVGTLMSKLRELGRRDAADFLLKASSVFKINLDGNGQEAYASSCNSGTSYNSISSVVSR
modifications: left off: small tags and cut ends
notes: tagged human full-length death-associated protein kinase (DAPk), expressed by transfection
For the molecule B1, the cell detachment is recorded as 17.4%±7.4%.
